Source: article PMC9834252 (Nature Communications, 2023)

Target: T1, M1-linked di-Ub (UniProt P0CG48 1-76; P0CG48 1-76)
T1 construct: ubiquitin, distal protomer (its C-terminus joined to M1 of the next); ubiquitin, proximal protomer (free C-terminus); also called M1 di-Ub; linear di-Ub; source: E. coli, purified (acid precipitation, cation exchange, SEC)
Experiment: ITC; M1-linked di-Ub and HOIL-1 (WT or I358R), direct binding; who was titrated and the concentrations are not told; 25 °C, 10 mM HEPES pH 7.9, 100 mM NaCl
Settings: both partners purified

B1: HOIL-1 helix-RBR (WT) (domain or fragment, human, UniProt Q9BYM8 233-510, looked up)
chain: DEEERARLAGEEEALRQYQQRKQQQQEGNYLQHVQLDQRSLVLNTEPAECPVCYSVLAPGEAVVLRECLHTFCRECLQGTIRNSQEAEVSCPFIDNTYSCSGKLLEREIKALLTPEDYQRFLDLGISIAENRSAFSYHCKTPDCKGWCFFEDDVNEFTCPVCFHVNCLLCKAIHEQMNCKEYQEDLALRAQNDVAARQTTEMLKVMLQQGEAMRCPQCQIVVQKKDGCDWIRCTVCHTEICWVTKGPRWGPGGPGDTSGGCRCRVNGIPCHPSCQNCH
notes: HOIL-1, human, residues 233-510 (N-terminal helix and RBR module); also called WT HOIL-1; HOIL-1 233-510 (helix-RBR); source: E. coli BL21(DE3), purified (Ni-NTA, SEC)
Kd: ~50 µM
